Holding throughout (experiment): cell_activity
Data set [1] has as its system FucT1_T01 TAL effector endonuclease, right monomer (engineered). Conditions: yeast beta-gal assay of the pair 37 C; 0.6 at 30 C.
For data set [2], the system named is XylT_T03 TAL effector endonuclease, right monomer (engineered). Conditions: yeast beta-gal assay of the pair 37 C; 0.7 at 30 C; protoplast NHEJ 34.4% XylT1, 28.2% XylT2 (Table 3).
The test system of data set [3] is XylT_T04 TAL effector endonuclease, right monomer (engineered). Particulars: yeast beta-gal assay of the pair 37 C; 0.9 at 30 C; protoplast NHEJ 73.8% XylT1, 63.9% XylT2 (Table 3).
Data set [4] relates to FucT1_T02 TAL effector endonuclease, right monomer (engineered). Conditions: yeast beta-gal assay of the pair 37 C; 0.7 at 30 C; protoplast NHEJ 39.2% FucT1, 24.7% FucT2 (Table 3).
For data set [5], the system named is FucT2_T02 TAL effector endonuclease, right monomer (engineered). Conditions: yeast beta-gal assay of the pair 37 C; 0.7 at 30 C; protoplast NHEJ 46.5% FucT1, 45.0% FucT2 (Table 3).
The test system of data set [6] is FucT2_T01 TAL effector endonuclease, right monomer (engineered). Conditions: yeast beta-gal assay of the pair 37 C; 0.8 at 30 C.
The subject of data set [7] is XylT_T04 TAL effector endonuclease, left monomer (engineered). Particulars: yeast beta-gal assay of the pair 37 C; 0.9 at 30 C; protoplast NHEJ 73.8% XylT1, 63.9% XylT2 (Table 3).
Data set [8] concerns FucT1_T01 TAL effector endonuclease, left monomer (engineered). Conditions: yeast beta-gal assay of the pair 37 C; 0.6 at 30 C.
In data set [9] the test system is FucT2_T01 TAL effector endonuclease, left monomer (engineered). Particulars: yeast beta-gal assay of the pair 37 C; 0.8 at 30 C.
Data set [10] has as its system FucT2_T02 TAL effector endonuclease, left monomer (engineered).
The subject of data set [11] is FucT1_T02 TAL effector endonuclease, left monomer (engineered).
Data set [12] has as its system XylT_T03 TAL effector endonuclease, left monomer (engineered). Conditions: yeast beta-gal assay of the pair 37 C; 0.7 at 30 C; protoplast NHEJ 34.4% XylT1, 28.2% XylT2 (Table 3).
For data set [13], the system named is FucT_T04 TAL effector endonuclease, left monomer (engineered). Particulars: yeast beta-gal assay of the pair 37 C; 0.5 at 30 C; same with FucT1 and FucT2 spacers.
The subject of data set [14] is FucT_T04 TAL effector endonuclease, right monomer (engineered). Particulars: yeast beta-gal assay of the pair 37 C; 0.5 at 30 C; same with FucT1 and FucT2 spacers.

The text below walks through data of patent US20210059142.

In turn, “AATAAGCAATGGCGCAA (double strand) [FucT1_T01 target sequence 2]” gave an activity (relative to I-SceI) in [1] of 0.8. With “ATCACTCTCTATCTCTA (double strand) [XylT_T03 target sequence 2]”, the activity (relative to I-SceI) in data set [2] worked out at 0.9. “CTCTACTTCTCTTCCCA (double strand) [XylT_T04 target sequence 2]”: the activity (relative to I-SceI) in data set [3] was 0.9. In the case of “CTCTGTTCGTTGCCCTA (double strand) [FucT_T02 target sequence 2]”, the activity (relative to I-SceI) in [4] and in [5] was 0.9 each time. Sequence “GATAAACAATGGCGCAA (double strand) [FucT2_T01 target sequence 2]” gave an activity (relative to I-SceI) in data set [6] of 0.9. With “TCTCTTCGCTCTCAACT (double strand) [XylT_T04 target sequence 1]”, the activity (relative to I-SceI) in data set [7] is 0.9.

In the case of “TGAGATCGGCGTCAAAT (double strand) [FucT1_T01 target sequence 1]”, the activity (relative to I-SceI) in data set [8] came out at 0.8. Sequence “TGAGATCGTCGTCAAAT (double strand) [FucT2_T01 target sequence 1]” returned an activity (relative to I-SceI) in [9] of 0.9. As to “TTCAAACGCACCCAATA (double strand) [FucT1_T02 target sequence 1]”, the activity in data set [10] (pair at endogenous FucT1, 1-bp polymorphism in half-site, N. benthamiana protoplasts, control 0.79%) amounted to 46.5 % NHEJ. Also, the activity (relative to I-SceI) in data set [11] (yeast beta-gal assay of the pair 37 C, 0.7 at 30 C, protoplast NHEJ 39.2% at FucT1 (Table 3)) turned out to be 0.9. For the sequence “TTCAAACGCACCCGATA (double strand) [FucT2_T02 target sequence 1]”, in data set [10] (yeast beta-gal assay of the pair 37 C, 0.7 at 30 C, protoplast NHEJ 45.0% at FucT2 (Table 3)), the activity (relative to I-SceI) is 0.9. The same sequence had an activity in [11] (pair at endogenous FucT2, 1-bp polymorphism in half-site, N. benthamiana protoplasts, control 0.14%) of 24.7 % NHEJ.

Sequence “TTCTTGTTTCTCTCTTC (double strand) [XylT_T03 target sequence 1]” showed an activity (relative to I-SceI) in data set [12] of 0.9. In [13], “TTGCCTCTGTTCGTTGC (double strand) [FucT_T04 target sequence 1]” came in with an activity (relative to I-SceI) of 0.6. In data set [14], “TTTCTGGTTCGACTCGA (double strand) [FucT_T04 target sequence 2]” showed an activity (relative to I-SceI) of 0.6.
